According to article PMC2119608:

Molecular target: CD3 gamma subunit, transiently expressed in COS cells (human) (UniProt P09693)
Assay: co-IP

UniProt P09693, sequence (P09693 23-182): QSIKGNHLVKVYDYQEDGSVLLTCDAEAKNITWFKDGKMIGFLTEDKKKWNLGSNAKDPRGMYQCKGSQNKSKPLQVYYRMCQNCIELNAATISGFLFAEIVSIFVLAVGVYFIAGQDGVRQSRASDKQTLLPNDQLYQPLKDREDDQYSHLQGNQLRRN

Sequence: T cell antigen receptor (TCR) beta chain, transiently expressed in COS cells
- percent bound to CD3 subunits: 60%
